Four substances from patent US20030144481A1 can be followed below.

In experiment [1] the target is human αvβ3 protein (CHEMICON International), soluble (human) (UniProt P06756). The experiment in a line: cell-based or functional assay.
The target of experiment [2] is αvβ3 integrin on HUVEC cells (human) (UniProt P06756). The experiment in a line: HUVEC adhesion to collagen Type IV-coated plates; 10 µg/ml antibody.
For experiment [3] the target is unchanged. The experiment in a line: HUVEC attachment to Tumstatin-coated plates; 10 µg/ml antibody; against control IgG.
Experiment [4] deals with αvβ3 integrin on C-PAE cells (bovine) (UniProt P80746). The experiment in a line: C-PAE attachment to Tum-4-coated plates.
Chain of αvβ3 integrin on C-PAE cells (bovine) (P80746 31-1048): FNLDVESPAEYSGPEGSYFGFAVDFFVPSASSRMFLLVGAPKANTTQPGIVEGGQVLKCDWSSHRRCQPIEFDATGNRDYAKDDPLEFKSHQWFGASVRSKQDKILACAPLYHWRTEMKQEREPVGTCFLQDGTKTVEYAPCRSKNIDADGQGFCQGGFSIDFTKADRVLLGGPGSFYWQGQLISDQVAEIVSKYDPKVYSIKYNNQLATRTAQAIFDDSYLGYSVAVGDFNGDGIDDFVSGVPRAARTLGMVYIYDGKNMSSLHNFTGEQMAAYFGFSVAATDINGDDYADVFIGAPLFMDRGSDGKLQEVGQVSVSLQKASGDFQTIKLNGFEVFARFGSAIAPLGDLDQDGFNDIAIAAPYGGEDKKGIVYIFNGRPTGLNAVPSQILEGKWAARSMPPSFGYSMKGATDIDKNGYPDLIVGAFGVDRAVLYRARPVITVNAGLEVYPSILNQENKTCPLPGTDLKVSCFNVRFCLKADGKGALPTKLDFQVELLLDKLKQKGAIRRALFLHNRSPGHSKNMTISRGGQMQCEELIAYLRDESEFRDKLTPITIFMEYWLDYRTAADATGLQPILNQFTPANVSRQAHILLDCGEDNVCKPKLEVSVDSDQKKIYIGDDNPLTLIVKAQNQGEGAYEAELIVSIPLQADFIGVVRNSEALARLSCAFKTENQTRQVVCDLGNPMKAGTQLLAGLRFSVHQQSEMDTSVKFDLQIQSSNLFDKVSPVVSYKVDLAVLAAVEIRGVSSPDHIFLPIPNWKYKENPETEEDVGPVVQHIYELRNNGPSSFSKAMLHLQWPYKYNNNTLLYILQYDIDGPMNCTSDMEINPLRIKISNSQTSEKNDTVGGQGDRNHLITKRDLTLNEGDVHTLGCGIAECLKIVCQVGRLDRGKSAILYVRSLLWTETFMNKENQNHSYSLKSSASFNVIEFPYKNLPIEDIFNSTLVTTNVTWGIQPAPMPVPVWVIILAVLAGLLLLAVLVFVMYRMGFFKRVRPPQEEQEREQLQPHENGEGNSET
The target of experiment [5] is αvβ3 integrin on HUVEC cells (human) (UniProt P06756). The experiment in a line: cell binding to vitronectin-coated plates; 10 µg/ml antibody.
Experiment [6] has the same target. The experiment in a line: HUVEC attachment to plates coated with E. coli Tumstatin-45-132; 10 µg/ml antibody.
Experiment [7] has the same target. The experiment in a line: HUVEC attachment to Tumstatin-coated plates; anti-αvβ3 and anti-β1 antibodies used together.
Experiment [8] addresses αvβ3 integrin on C-PAE cells (bovine) (UniProt P80746). Description: C-PAE attachment to Tum-1-coated plates.
The target is the same in experiment [9]. Description: C-PAE attachment to Tum-2-coated plates.
The target of experiment [10] is integrin β1 subunit on HUVEC cells (human) (UniProt P05556). Description: HUVEC adhesion to collagen Type IV-coated plates; 10 µg/ml antibody.
Chain of integrin β1 subunit on HUVEC cells (human) (P05556 21-798): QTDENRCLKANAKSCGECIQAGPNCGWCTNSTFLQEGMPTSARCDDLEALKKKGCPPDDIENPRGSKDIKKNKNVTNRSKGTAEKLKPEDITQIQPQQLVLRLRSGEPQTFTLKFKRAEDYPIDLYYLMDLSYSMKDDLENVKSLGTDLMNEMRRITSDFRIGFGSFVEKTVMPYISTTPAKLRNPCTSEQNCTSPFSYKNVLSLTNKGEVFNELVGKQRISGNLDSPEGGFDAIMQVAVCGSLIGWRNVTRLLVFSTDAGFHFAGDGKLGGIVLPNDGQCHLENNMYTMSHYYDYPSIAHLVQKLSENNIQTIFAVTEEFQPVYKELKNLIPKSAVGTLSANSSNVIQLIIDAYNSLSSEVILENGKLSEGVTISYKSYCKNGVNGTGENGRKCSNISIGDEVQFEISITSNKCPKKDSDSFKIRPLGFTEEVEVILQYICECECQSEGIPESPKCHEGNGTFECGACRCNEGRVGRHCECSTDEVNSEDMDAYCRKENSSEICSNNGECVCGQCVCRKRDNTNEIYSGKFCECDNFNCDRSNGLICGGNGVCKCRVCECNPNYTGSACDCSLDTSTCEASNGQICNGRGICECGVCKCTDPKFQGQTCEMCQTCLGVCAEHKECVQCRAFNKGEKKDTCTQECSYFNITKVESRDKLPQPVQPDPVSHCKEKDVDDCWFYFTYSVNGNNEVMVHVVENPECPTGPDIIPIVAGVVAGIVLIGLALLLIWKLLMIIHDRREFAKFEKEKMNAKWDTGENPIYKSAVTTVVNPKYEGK
For experiment [11] the target is unchanged. The experiment in a line: HUVEC attachment to Tumstatin-coated plates; 10 µg/ml antibody; against control IgG.
The target is the same in experiment [12]. Description: HUVEC attachment to plates coated with E. coli Tumstatin-45-132; 10 µg/ml antibody.
For experiment [13] the target is unchanged. Description: cell binding to type IV collagen-coated plates; 10 µg/ml antibody; against control IgG.
Experiment [14] shares this target. The experiment in a line: HUVEC adhesion to Arresten-coated plates; 10 µg/ml antibody; blocked pair Arresten / integrin β1.

Chain of αvβ3 integrin on HUVEC cells (human) (P06756 31-1048, chain 1 of 2): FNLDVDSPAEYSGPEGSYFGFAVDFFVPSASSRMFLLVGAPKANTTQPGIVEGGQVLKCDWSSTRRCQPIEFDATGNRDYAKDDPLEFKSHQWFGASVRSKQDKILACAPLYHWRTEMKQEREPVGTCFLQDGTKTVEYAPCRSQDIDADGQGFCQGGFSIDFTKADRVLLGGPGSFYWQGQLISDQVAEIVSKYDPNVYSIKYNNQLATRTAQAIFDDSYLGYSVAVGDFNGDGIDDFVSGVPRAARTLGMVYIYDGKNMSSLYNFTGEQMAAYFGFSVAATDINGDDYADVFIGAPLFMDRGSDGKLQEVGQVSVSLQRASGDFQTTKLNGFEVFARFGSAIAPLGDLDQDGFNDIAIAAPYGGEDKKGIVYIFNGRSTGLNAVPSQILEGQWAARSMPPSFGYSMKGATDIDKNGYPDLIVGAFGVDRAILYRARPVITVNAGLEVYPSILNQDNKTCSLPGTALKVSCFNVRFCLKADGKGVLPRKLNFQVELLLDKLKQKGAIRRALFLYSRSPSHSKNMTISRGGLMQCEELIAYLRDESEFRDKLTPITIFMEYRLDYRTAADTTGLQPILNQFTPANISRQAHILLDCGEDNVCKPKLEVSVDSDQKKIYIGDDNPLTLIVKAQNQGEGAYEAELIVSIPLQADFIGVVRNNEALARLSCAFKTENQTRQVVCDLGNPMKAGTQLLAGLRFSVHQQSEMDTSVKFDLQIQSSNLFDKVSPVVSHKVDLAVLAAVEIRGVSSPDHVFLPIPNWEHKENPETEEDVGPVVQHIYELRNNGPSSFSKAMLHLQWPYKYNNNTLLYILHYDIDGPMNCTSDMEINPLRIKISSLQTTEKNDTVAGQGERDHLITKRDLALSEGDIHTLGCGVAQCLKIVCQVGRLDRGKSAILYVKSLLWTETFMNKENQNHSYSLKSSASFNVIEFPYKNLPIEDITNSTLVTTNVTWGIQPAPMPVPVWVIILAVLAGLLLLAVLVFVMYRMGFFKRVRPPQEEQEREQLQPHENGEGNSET
Chain of αvβ3 integrin on HUVEC cells (human) (P05106 27-788, chain 2 of 2, further chain): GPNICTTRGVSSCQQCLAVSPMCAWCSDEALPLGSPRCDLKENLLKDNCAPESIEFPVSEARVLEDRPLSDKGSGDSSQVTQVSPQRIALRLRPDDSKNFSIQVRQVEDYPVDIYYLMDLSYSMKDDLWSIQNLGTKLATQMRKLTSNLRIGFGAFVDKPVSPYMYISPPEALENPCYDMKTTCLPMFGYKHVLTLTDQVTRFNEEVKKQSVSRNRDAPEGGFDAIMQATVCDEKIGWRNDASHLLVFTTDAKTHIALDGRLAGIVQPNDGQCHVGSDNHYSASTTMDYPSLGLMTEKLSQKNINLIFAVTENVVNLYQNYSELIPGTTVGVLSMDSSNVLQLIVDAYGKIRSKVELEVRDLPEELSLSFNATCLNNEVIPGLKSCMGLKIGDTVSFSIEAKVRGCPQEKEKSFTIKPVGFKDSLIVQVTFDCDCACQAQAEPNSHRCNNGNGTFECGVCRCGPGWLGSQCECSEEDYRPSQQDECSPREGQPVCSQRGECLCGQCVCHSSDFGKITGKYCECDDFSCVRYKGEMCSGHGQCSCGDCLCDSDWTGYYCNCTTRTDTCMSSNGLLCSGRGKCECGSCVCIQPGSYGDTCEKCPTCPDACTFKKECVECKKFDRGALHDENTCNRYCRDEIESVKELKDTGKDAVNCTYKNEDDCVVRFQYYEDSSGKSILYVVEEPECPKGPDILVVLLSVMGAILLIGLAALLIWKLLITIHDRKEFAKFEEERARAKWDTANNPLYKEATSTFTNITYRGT

On to “Tum-2 (from UniProt Q01955 1427-1558) (ligand)”, for which the recovery of the anti-proliferative effect on C-PAE cells (methylene blue) in experiment [1] was 74.1%.

The substance “Tum-4 (from UniProt Q01955 1607-1670) (ligand)” had a recovery of the anti-proliferative effect on WM-164 melanoma cells (methylene blue) in experiment [1] of 76.7%.

The substance “monoclonal antibody to αvβ3 integrin (clone LM609, CHEMICON International)” displayed a % inhibition of cell adhesion in [2] of 15%. In addition, the % inhibition of cell attachment turned out to be 80% in experiment [3]; 62.6% in experiment [4]; 47.1% in experiment [6]; 91% in experiment [7]; 55.9% in [8]; 69.8% in experiment [9]. This substance also showed a % inhibition of cell binding in [5] of 61%.

Consider “mouse monoclonal antibody to the human β1 integrin (clone P4C10, Life Technologies/Gibco BRL)”, for which the % inhibition of cell adhesion in [10] came out at 40%; in [14] it was 70%. For the same substance, the values for the % inhibition of cell attachment in [11] and in [12] were 54% and 47.5%, respectively. Also, the % inhibition of cell binding in experiment [13] amounted to 53%.
